Measured values: publication PMC12632113 (Cell & Bioscience, 2025)

Target: the molecule itself
Test: native gel or EMSA

B1: polypyrimidine tract-binding protein 1 (PTBP1), wild type (natural protein)
chain: not shown
stoichiometry N: 2
